Consider 140 substances from the supplement of paper PMC12042874.

± gives the uncertainty stated by the source.

The nature of the series: amyloid nucleation score (Sup35N fusion, yeast selection) (log enrichment); library NNK1; higher = more nucleation; inactive = no reads after selection. The method in brief:
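Yeast lacking psi expressed peptides of 20 random codons fused to Sup35N, received 100 μM copper sulfate for 24 hours, and were then grown for 7 days at 30°C on medium lacking adenine and uracil. Illumina sequencing of input and output plasmid inserts provided the reads. Nucleation scores are DiMSum log enrichments of output over input, centred on the mode of non-aggregating sequences. Any sequence with under 100 input reads was excluded.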

In turn, GQDAPEDAMSVRRILVSGLA gave an amyloid nucleation score of -0.109 ± 1.5.

As for LRVCNLFCL, the amyloid nucleation score was 7.912 ± 0.046. As for GHNLRLWCCNEADHFFRAQR, the amyloid nucleation score is -1.16 ± 1.9.

FVKSKGWVCAGFLYIASL yielded an amyloid nucleation score of 0.53 ± 0.75. As for CWDFISCSGQVVNGWSKDSS, the figure is -0.008 ± 0.42. As for FCAGGMGNCKCWLCFLRSTM, the figure is -1.33 ± 0.7; as for CGFKLVVVCFMK, 3.47 ± 0.2. As for GFIKPILEQGRYHNESRVLL, the figure is 0.243 ± 0.58; as for VNSRCLSAYTK, 0.46 ± 0.34; as for FCSKTFL, 1.35 ± 0.46.

Substance STIGNVY had an amyloid nucleation score of -0.586 ± 0.51. For LGIARDSWGKIKQFSAVDSC the value was 0.159 ± 0.26; for KFYSMKTSNFWCI, 2.04 ± 0.18.

For GIKAIKCDEPSCAVLGLNSS, the amyloid nucleation score was -0.536 ± 0.5. As for AGMAWYTPVWVSGWGQPHTE, the figure is -0.119 ± 0.38; as for RGMSTNSRECHNMCFQVGV, 0.228 ± 0.49. YYWVFCFFA registered an amyloid nucleation score of 7.47 ± 0.079. For QFFQPCVKC the value was 1.06 ± 0.57; for GGHYAVQNPMRVYAYGH, -0.667 ± 1. Consider TSSPKRFLIMKVNCIIILDL, for which the amyloid nucleation score is -0.721 ± 0.68. The substance RARDV showed an amyloid nucleation score of 0.167 ± 0.38. For GVRCRLLRIPFVSISRSGWR the value was 0.743 ± 0.58; for RKGSGSRLKIYVYVTVTKIG, 0.52 ± 0.93; for TTLVKPDEIVFVSINECWCW, 0.021 ± 0.59.

Regarding IWDASKVGSYAELHTLM, the amyloid nucleation score is 0.744 ± 0.33. SMTRIANSMINVFGENPSNS: the amyloid nucleation score was -0.267 ± 0.69.

In turn, FPEHVPVSVYVCYRGYGRRV had an amyloid nucleation score of -0.589 ± 0.61. As for MNKIITRTRSMATSDSTRHS, the figure is 0.052 ± 0.67; as for KELCCRASSDLMLRWQVKVF, 0.027 ± 1.4; as for SYWCLRAYLRLWLL, -0.164 ± 0.42. As for GATVNSVWSVPKQVTWSGMC, the figure is -0.138 ± 0.32; as for WSGIVFRIEGVAYVVHVNDA, 1.17 ± 0.18.

Substance RHHCKTCASYCFRIFIAEMM returned an amyloid nucleation score of 0.216 ± 0.42. For NFGLRRYSNARMGMDCGWLC the value was -0.011 ± 0.45. As for QSTMIASMRYSFFACAVLYI, the figure is 0.074 ± 0.51.

For NLGTSYAWHDNGLFCIHCVS, the amyloid nucleation score amounted to 1.34 ± 0.84. As for RMLQHLVFLAGLNDVFAKGF, the figure is 1.43 ± 0.15; as for GGYGLYCDHRYVTTTWWHSS, 0.926 ± 0.66.

Substance HSLLWPLGFAQ registered an amyloid nucleation score of 0.184 ± 0.67. Consider ALLMGDFGCFLYTFGWFYAK, for which the amyloid nucleation score is -0.173 ± 0.41. FSLDSRITANLTKWEEMLVQ displayed an amyloid nucleation score of -0.779 ± 0.41. MMDNLVYQRYTCTF: the amyloid nucleation score was determined as 0.448 ± 0.79. Consider VRKSSVASLECQNA, for which the amyloid nucleation score is 0.335 ± 0.28.

With NCKFEKSLKPPHGPYNGNQY, the amyloid nucleation score came out at 0.292 ± 0.42. For SLNFT, the amyloid nucleation score is -0.337 ± 0.31. For DYVYHKAWKVKGTRAWKESL the value was -0.266 ± 1.4; for LDLVTGL, 1.1 ± 0.66. On to TRIMVDFLLDWHCRMVKLVN, for which the amyloid nucleation score worked out at 0.33 ± 0.44. Substance LFDWWCFEKYLICRVGSLTF showed an amyloid nucleation score of -0.091 ± 0.51.

Take KYFYMMTAYRRWRRDPYLGG: the amyloid nucleation score is -0.54 ± 0.62.

ARTKGSVAPTTLHANNGAWS displayed an amyloid nucleation score of -0.053 ± 0.39.

With EKNYRICGFMGLLLFRIE, the amyloid nucleation score result was “inactive”. Substance ICGNSSTEASGL showed an amyloid nucleation score of 0.039 ± 0.56. Turning to KGVHGYCRRIM, the amyloid nucleation score entry is “inactive”. Regarding LDLSNDGRFYKGREGAISCR, the amyloid nucleation score amounted to 0.049 ± 0.31.

On to RFIFIQRVNRVFLQDSWKMV, for which the amyloid nucleation score amounted to 6.39 ± 0.075. For FMPTKGGQSIIGLHPLLFML the value was -0.577 ± 0.58; for TAIRLVQS, -0.283 ± 0.44. For the substance PAMAWSSSMSFRGTILLDFA, the amyloid nucleation score was -1.44 ± 2.7. As for YLDWTVSALNWAMRMGSTVR, the figure is 0.381 ± 0.31; as for SLMVSRGDTCG, -0.181 ± 0.35. TRMCLRAKSMWVVDSN gave an amyloid nucleation score of 0.068 ± 0.48. For DLVTH the value was 0.015 ± 0.83. For GGFFYMWRYRLCRLGKFGAP the value was -0.76 ± 0.6; for NCDLECQSLRAYGLSCKKSR, -0.22 ± 0.43; for GSIPDCGIGICRYKLSGIMK, 0.047 ± 0.63. As for YAISGAGYMLF, the figure is 0.027 ± 1.7.

As to LLALRPASNKWNAYQTLTEP, the amyloid nucleation score is -0.462 ± 0.57. In turn, TTSCNGLFERAKNSTNSPDI displayed an amyloid nucleation score of -2.25 ± 2.4. For QGWSMVWYYSLESEETT the value was -0.377 ± 0.6; for MQIMRRIMWYDNSKVSF, -0.177 ± 0.2. As to LGSEAS, the amyloid nucleation score was 0.093 ± 0.2. TARFINVDVLSPW returned an amyloid nucleation score of 1.32 ± 0.28. Regarding YVLSLYTNGRSPSA, the amyloid nucleation score was 0.203 ± 0.56.

As to LYLAQFQGNGDLFSVPPCKV, the amyloid nucleation score was 0.16 ± 0.64. For LFPSTTMLLFRLNQGGFDEI, the amyloid nucleation score came out at 0.407 ± 0.58. For PIFSYFALFLGLIKHCIMSQ the value was -0.238 ± 0.53; for GGSFKGYSLIV, 0.678 ± 0.66; for VFTGLLLL, -0.034 ± 0.36. For AYAILMRKMVIHADLLARC the value was -0.006 ± 0.7.

In turn, RLYLDMSIRPSWASVRFSFG returned an amyloid nucleation score of -1.19 ± 1.9.

Take FFESEVSDKNFGSC: the amyloid nucleation score was -1.29 ± 2.4. Substance YIWQGTRFQRGNRIYIGSQG came in with an amyloid nucleation score of 0.271 ± 0.54. For GMRIGC the value was 0.023 ± 0.95; for GGVVCRVKGKNRFPLVSWQF, -0.565 ± 0.61.

Regarding NTQFHCDDFQLVHDIQ, the amyloid nucleation score is 0.214 ± 0.38.

In turn, MRLERTNRGSAPWTLYYNQR registered an amyloid nucleation score of 1.09 ± 0.17.

For LRTMIVLGFSTWDTCIGSES, the amyloid nucleation score was -0.537 ± 0.28.

IWCVFIQWLCSRRVERQSCR: the amyloid nucleation score is 4.31 ± 0.11. As for YIRGNFYSYQWGNCFMGNFC, the figure is 7.792 ± 0.05; as for PILSNLHIPMCPENVNGRGS, 0.939 ± 0.33. As for FSTIGCKSMAVNCSFWYWSR, the figure is 6.196 ± 0.047. As for AYCTLNR, the figure is 0.603 ± 0.36.

In turn, DRVWCHETKRSFYIMCKNNI came in with an amyloid nucleation score of 0.052 ± 0.24. For HNTSLYVTLNSSTR, the amyloid nucleation score was 6.2 ± 0.09.

In turn, IDCGSFSYKQSMQLMCKSAQ showed an amyloid nucleation score of -0.19 ± 0.28.

On to NLICNLVDNQFPVWQLLRIW, for which the amyloid nucleation score came to 2.3 ± 0.17. As to RCSCFY, the amyloid nucleation score entry was “inactive”. For MWVNLVWTAFLYKSILCRVF the value was 0.38 ± 1.2; for PGVNKVHLYKESIIYLLAVS, “inactive”; for LLVLMYNCFAIYKNWIF, 0.209 ± 1.2. For the substance LLFIAG, the amyloid nucleation score was 0.386 ± 0.66. MAACMYSCSMSAVEPLHTYS gave an amyloid nucleation score of 0.039 ± 0.67. For RMLIYVQFTRRDKVSNPLM the value was -0.685 ± 0.33; for LFKSPWGDDHSIST, 0.434 ± 0.29.

The substance LGFSVCSRLVFIWEYASFGK gave an amyloid nucleation score of 0.459 ± 0.46. In turn, RWNRTRFPHLYCKIGEKCIY had an amyloid nucleation score of 0.312 ± 0.33.

The substance MFTIF came in with an amyloid nucleation score of 0.045 ± 0.3. With YYMTIFERFSLHFTMGLNLG, the amyloid nucleation score is 0.752 ± 0.56. As for KLTQKCHKCLH, the amyloid nucleation score came out at 0.107 ± 0.68. As for DVMLNCCGYCAPGGWVVVFS, the figure is 5.33 ± 0.089; as for DDVYSRYVNEGLGWCFIVYL, “inactive”. DELGAMMRIFSFSCNP had an amyloid nucleation score of -0.147 ± 1.1.

Consider GRHSWINGYKVEV, for which the amyloid nucleation score stood at 6.938 ± 0.055.

For the substance GAFCWRLVGEGLFVALDVCE, the amyloid nucleation score turned out to be 0.458 ± 0.87. Regarding TWSTGAMPML, the amyloid nucleation score was -0.344 ± 0.84.

Turning to TFNGFFCRCPSFKIYFHEVL, the amyloid nucleation score is 0.825 ± 0.24. As for FATQTVAACVQCLKTRSDVF, the figure is 0.029 ± 1.1. In turn, HLFRYSGTTSAV gave an amyloid nucleation score of 0.386 ± 0.53. For NSLCRLSGCCGVLRDLPLVM the value was -0.232 ± 0.33. In the case of GGWFIINRHHLCYSRNLPPE, the amyloid nucleation score was 0.271 ± 0.69. As for DGLSFLMEHLCVNTLCKGSR, the figure is -0.075 ± 0.34. Consider STLSMTHVASAAVWRLVMPR, for which the amyloid nucleation score came to 1.41 ± 0.48. LYRSGSPRTGWKLMSSSARR showed an amyloid nucleation score of 7.525 ± 0.07. For the substance LLVGKMCRWNMSYVG, the amyloid nucleation score is -0.063 ± 0.28.

For the substance VRVVSTSRILFHGFFRNNKG, the amyloid nucleation score turned out to be 0.567 ± 0.33. For KKYVRGWGAFLAMQHGGMM the value was -0.604 ± 0.6. Consider SITRKRVRRDAGGMVCGLVS, for which the amyloid nucleation score entry was “inactive”. For HWLRYGDRIHMDNYNTSFFV the value was 1.42 ± 0.12. As for SFDLGYPIFCKYTRT, the figure is 0.576 ± 0.52. In turn, SFVHYFKESLAVSSLIRLSN returned an amyloid nucleation score of -0.333 ± 1.1. As to NRPHFKGNQCPQDIS, the amyloid nucleation score is -0.217 ± 0.22. For PDLTSCDVIVIWGFGRG the value was -0.118 ± 1. For the substance RLYSDAQ, the amyloid nucleation score was -0.003 ± 0.71.

On to MMTACLFIIF, for which the amyloid nucleation score was 5.925 ± 0.057. For RMNGLSGRLSTAWQFMYMWC the value was -0.153 ± 0.34. In the case of VSCQHTVFKVICSYLPHLCK, the amyloid nucleation score turned out to be 0.666 ± 0.59. As for LLSLNEMYMTLMGGTVPRVG, the figure is -0.076 ± 0.56. As for MYQVHTVSTVKIEMAYHAQG, the figure is 1.67 ± 0.26. As to EPYLISEFRRT, the amyloid nucleation score is -0.364 ± 0.47.
